# Values of other authors, collected in paper PMC10188253 (Molecular pharmaceutics, 2022).
# Where two headings read alike, the source gives them in different places.
# System: B16/F10 melanoma
# Conditions: ref [25]
substance,measurement,setting,value
^64Cu-CB-TE1A1P-PEG4-LLP2A,B16/F10 melanoma uptake,2 h post-injection,15.1 ± 1.0 % ID/g
same,"VLA-4-specific uptake in normal lung, bone and spleen",2 h post-injection,4.6–18.1 % ID/g
same,B16/F10 melanoma uptake,4 h post-injection,16.9 ± 2.2 % ID/g
